Test results as given in the RNAGym collection of RNA variant scans (doi:10.1093/nar/gkz1192).

B1: CPEB3 Ribozyme (parent)
chain: UAACAGGGGGCCACAGCAGAAGCGUUCACGUCGCAGCCCCUGUCAGAUUCUGGUGAAUCUGCGAAUUCUGCUGUAUAUCUC

Variants of: B1
Assay: self-cleavage, relative activity (ratio to wild type); higher = more cleavage; in vitro, sequencing
Method in brief: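 Relative activity compares each variant's cleaved/total read fraction with that of the unmutated ribozyme. To get these fractions, barcoded CPEB3 ribozyme libraries from rounds of error-prone PCR were transcribed with T7 RNA polymerase for 5 hours at 37°C and then given 15 min of DNase I treatment before EDTA was added. The RNAs were reverse transcribed with template switching and sequenced on Illumina, and DNA sequencing linked barcodes to variants. A minimum of 5 reads applied, and three batches were averaged.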

Going from A3G G70A to A3G G73A, the self-cleavage rises from 0.69 to 1.22.

First: A3G U25A
Second: A3G U25C
The self-cleavage of the first is higher: 0.63 for the first, 0.42 for the second.

Compared with A3G U25G, A3G U26A is higher in self-cleavage: 0.45 for the first, 0.9 for the second.

First: A3G U26C
Second: A3G U31A
The self-cleavage of the first is higher: 0.65 for the first, 0.61 for the second.

Going from A3G U31C to A3G U31G, the self-cleavage falls from 0.84 to 0.76.

Compared with A3G U41A, A3G U41C is higher in self-cleavage: 0.3 for the first, 0.98 for the second.

Compared with A3G U41G, A3G U43A is higher in self-cleavage: 0.17 for the first, 0.99 for the second.

First: A3G U43C
Second: A3G U48A
The self-cleavage of the first is higher: 0.49 for the first, 0.37 for the second.

First: A3G U48C
Second: A3G U48G
The self-cleavage of the first is higher: 0.61 for the first, 0.54 for the second.

First: A3G U49A
Second: A3G U49C
The self-cleavage of the first is higher: 0.69 for the first, 0.49 for the second.

First: A3G U51A
Second: A3G U51C
The self-cleavage of the first is higher: 1 for the first, 0.94 for the second.

A3G U51G and A3G U54A are the same in self-cleavage: 0.98 for the first, 0.98 for the second.

Compared with A3G U54C, A3G U54G is lower in self-cleavage: 0.98 for the first, 0.82 for the second.

Compared with A3G U58A, A3G U58C is higher in self-cleavage: 0.43 for the first, 0.54 for the second.

First: A3G U58G
Second: A3G U60A
The self-cleavage of the first is lower: 0.39 for the first, 0.47 for the second.

Compared with A3G U60C, A3G U60G is lower in self-cleavage: 0.52 for the first, 0.45 for the second.

Compared with A3G U66A, A3G U66C is lower in self-cleavage: 0.64 for the first, 0.4 for the second.

First: A3G U66G
Second: A3G U67A
The self-cleavage of the first is higher: 0.62 for the first, 0.52 for the second.

First: A3G U67C
Second: A3G U67G
The self-cleavage of the first is lower: 0.33 for the first, 0.37 for the second.

Going from A3G U69A to A3G U69C, the self-cleavage falls from 0.69 to 0.6.

Going from A3G U69G to A3G U72A, the self-cleavage falls from 0.76 to 0.7.

Compared with A3G U72C, A3G U72G is lower in self-cleavage: 1.09 for the first, 1.07 for the second.

Compared with A3G U74A, A3G U74C is lower in self-cleavage: 1.22 for the first, 1.16 for the second.

Going from A3G U74G to A3G U76A, the self-cleavage falls from 1.24 to 1.23.

Compared with A3G U76C, A3G U78A is higher in self-cleavage: 1.15 for the first, 1.17 for the second.

First: A3G U78C
Second: A3G U80A
The self-cleavage of the first is lower: 0.99 for the first, 1.11 for the second.

First: A3G U80C
Second: A3G U80G
The self-cleavage of the first is lower: 1.07 for the first, 1.12 for the second.

First: A3U
Second: A3U A5G
The self-cleavage of the first is higher: 1.06 for the first, 0.79 for the second.

Going from A3U A5U to A3U A13C, the self-cleavage falls from 1.18 to 0.96.

Going from A3U A13G to A3U A13U, the self-cleavage rises from 0.89 to 1.16.

Going from A3U A15G to A3U A15U, the self-cleavage rises from 0.83 to 1.06.

Compared with A3U A18G, A3U A18U is lower in self-cleavage: 0.8 for the first, 0.56 for the second.

First: A3U A20C
Second: A3U A20G
The self-cleavage of the first is lower: 0.21 for the first, 0.94 for the second.

Going from A3U A20U to A3U A21G, the self-cleavage rises from 0.45 to 0.79.

Compared with A3U A21U, A3U A28C is higher in self-cleavage: 0.56 for the first, 0.91 for the second.

First: A3U A28G
Second: A3U A28U
The self-cleavage of the first is lower: 0.88 for the first, 1.13 for the second.

Going from A3U A35G to A3U A35U, the self-cleavage falls from 1.28 to 0.77.

First: A3U A45G
Second: A3U A45U
The self-cleavage of the first is higher: 1.03 for the first, 0.73 for the second.

Compared with A3U A47C, A3U A47G is higher in self-cleavage: 0.69 for the first, 1.17 for the second.

First: A3U A47U
Second: A3U A56G
The self-cleavage of the first is higher: 0.71 for the first, 0.63 for the second.

Going from A3U A57G to A3U A57U, the self-cleavage falls from 1.04 to 0.85.

Compared with A3U A64G, A3U A64U is lower in self-cleavage: 1.06 for the first, 0.69 for the second.

Going from A3U A65G to A3U A65U, the self-cleavage falls from 0.54 to 0.14.

First: A3U A75G
Second: A3U A77G
The self-cleavage of the first is higher: 1.06 for the first, 1.04 for the second.

First: A3U A77U
Second: A3U C4A
The self-cleavage of the first is higher: 1.25 for the first, 1.22 for the second.

First: A3U C4U
Second: A3U C11G
The self-cleavage of the first is higher: 1.17 for the first, 0.4 for the second.

Compared with A3U C12A, A3U C17A is lower in self-cleavage: 1.14 for the first, 0.26 for the second.

First: A3U C17G
Second: A3U C17U
The self-cleavage of the first is higher: 0.53 for the first, 0.5 for the second.

Compared with A3U C27U, A3U C29U is higher in self-cleavage: 0.6 for the first, 0.71 for the second.

Compared with A3U C32G, A3U C34U is higher in self-cleavage: 0.47 for the first, 0.51 for the second.

First: A3U C38G
Second: A3U C38U
The self-cleavage of the first is lower: 0.31 for the first, 0.97 for the second.

First: A3U C40A
Second: A3U C44U
The self-cleavage of the first is lower: 0.54 for the first, 0.73 for the second.

Going from A3U C59A to A3U C59U, the self-cleavage rises from 0.51 to 0.66.

A3U C68A and A3U C68G are the same in self-cleavage: 0.44 for the first, 0.44 for the second.

First: A3U C71U
Second: A3U C79U
The self-cleavage of the first is lower: 0.83 for the first, 1.21 for the second.

Going from A3U C81G to A3U G6A, the self-cleavage falls from 1.21 to 0.62.

Compared with A3U G6U, A3U G7A is lower in self-cleavage: 0.59 for the first, 0.47 for the second.

First: A3U G7C
Second: A3U G7U
The self-cleavage of the first is higher: 0.35 for the first, 0.13 for the second.

Going from A3U G8A to A3U G9A, the self-cleavage rises from 0.2 to 0.58.

Compared with A3U G9C, A3U G10A is lower in self-cleavage: 0.25 for the first, 0.1 for the second.

First: A3U G10U
Second: A3U G16A
The self-cleavage of the first is lower: 0.19 for the first, 0.43 for the second.

First: A3U G19U
Second: A3U G22A
The self-cleavage of the first is lower: 0.4 for the first, 0.45 for the second.

Compared with A3U G22U, A3U G33A is lower in self-cleavage: 0.32 for the first, 0.16 for the second.

Going from A3U G33U to A3U G36A, the self-cleavage falls from 0.42 to 0.32.

Compared with A3U G42U, A3U G46A is higher in self-cleavage: 0.16 for the first, 0.54 for the second.

Going from A3U G52A to A3U G61A, the self-cleavage falls from 1.1 to 1.01.

Compared with A3U G61C, A3U G63A is higher in self-cleavage: 0.5 for the first, 1.03 for the second.

Compared with A3U G63U, A3U G70A is lower in self-cleavage: 1.19 for the first, 0.63 for the second.

Going from A3U G70U to A3U G73C, the self-cleavage rises from 0.19 to 1.25.

Going from A3U U25A to A3U U25C, the self-cleavage rises from 0.29 to 0.34.

First: A3U U26A
Second: A3U U26C
The self-cleavage of the first is higher: 1.03 for the first, 0.64 for the second.

First: A3U U26G
Second: A3U U31A
The self-cleavage of the first is lower: 0.23 for the first, 0.55 for the second.

A3U U31C and A3U U31G are the same in self-cleavage: 1.01 for the first, 1.01 for the second.

Going from A3U U41A to A3U U41C, the self-cleavage rises from 0.31 to 1.05.

A3U U43A and A3U U43C are the same in self-cleavage: 0.77 for the first, 0.77 for the second.

First: A3U U43G
Second: A3U U48A
The self-cleavage of the first is lower: 0.34 for the first, 0.56 for the second.

Going from A3U U48C to A3U U49A, the self-cleavage falls from 0.63 to 0.47.

Going from A3U U49C to A3U U51A, the self-cleavage rises from 0.51 to 1.02.

First: A3U U51C
Second: A3U U51G
The self-cleavage of the first is higher: 1.15 for the first, 1.08 for the second.

Compared with A3U U54A, A3U U54C is lower in self-cleavage: 1.19 for the first, 1.04 for the second.

Compared with A3U U58A, A3U U58C is higher in self-cleavage: 0.39 for the first, 0.54 for the second.

First: A3U U60A
Second: A3U U60C
The self-cleavage of the first is lower: 0.19 for the first, 0.59 for the second.

Going from A3U U66C to A3U U67A, the self-cleavage rises from 0.55 to 0.75.

A3U U67C showed a self-cleavage of 0.3.
